US20130344073A1

Key:
[1] = target: human MASP-1 (human) (UniProt P48740); experiment: cell-based or functional assay
[2] = target: human MASP-2 (human) (UniProt O00187); experiment: cell-based or functional assay
Chain of human MASP-2 (human) (O00187 16-686): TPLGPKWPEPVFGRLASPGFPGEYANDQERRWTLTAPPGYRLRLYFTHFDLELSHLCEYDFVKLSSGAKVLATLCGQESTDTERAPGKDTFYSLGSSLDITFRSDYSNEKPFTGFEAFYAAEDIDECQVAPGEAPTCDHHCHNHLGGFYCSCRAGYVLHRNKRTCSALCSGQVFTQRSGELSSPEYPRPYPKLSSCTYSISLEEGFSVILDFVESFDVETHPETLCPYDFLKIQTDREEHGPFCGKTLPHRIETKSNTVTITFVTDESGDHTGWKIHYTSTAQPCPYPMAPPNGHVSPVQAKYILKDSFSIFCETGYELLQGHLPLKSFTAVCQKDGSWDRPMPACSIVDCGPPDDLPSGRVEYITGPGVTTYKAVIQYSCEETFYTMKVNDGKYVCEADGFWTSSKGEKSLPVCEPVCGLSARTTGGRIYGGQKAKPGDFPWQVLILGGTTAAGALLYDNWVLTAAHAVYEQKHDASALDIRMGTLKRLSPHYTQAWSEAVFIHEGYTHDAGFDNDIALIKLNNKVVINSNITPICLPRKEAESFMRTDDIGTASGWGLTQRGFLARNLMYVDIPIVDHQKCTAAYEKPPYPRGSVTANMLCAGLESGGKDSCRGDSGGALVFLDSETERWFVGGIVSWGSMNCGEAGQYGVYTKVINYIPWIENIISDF

Chain of human MASP-1 (human) (P48740 other isoform, or with tags, fused parts or gaps): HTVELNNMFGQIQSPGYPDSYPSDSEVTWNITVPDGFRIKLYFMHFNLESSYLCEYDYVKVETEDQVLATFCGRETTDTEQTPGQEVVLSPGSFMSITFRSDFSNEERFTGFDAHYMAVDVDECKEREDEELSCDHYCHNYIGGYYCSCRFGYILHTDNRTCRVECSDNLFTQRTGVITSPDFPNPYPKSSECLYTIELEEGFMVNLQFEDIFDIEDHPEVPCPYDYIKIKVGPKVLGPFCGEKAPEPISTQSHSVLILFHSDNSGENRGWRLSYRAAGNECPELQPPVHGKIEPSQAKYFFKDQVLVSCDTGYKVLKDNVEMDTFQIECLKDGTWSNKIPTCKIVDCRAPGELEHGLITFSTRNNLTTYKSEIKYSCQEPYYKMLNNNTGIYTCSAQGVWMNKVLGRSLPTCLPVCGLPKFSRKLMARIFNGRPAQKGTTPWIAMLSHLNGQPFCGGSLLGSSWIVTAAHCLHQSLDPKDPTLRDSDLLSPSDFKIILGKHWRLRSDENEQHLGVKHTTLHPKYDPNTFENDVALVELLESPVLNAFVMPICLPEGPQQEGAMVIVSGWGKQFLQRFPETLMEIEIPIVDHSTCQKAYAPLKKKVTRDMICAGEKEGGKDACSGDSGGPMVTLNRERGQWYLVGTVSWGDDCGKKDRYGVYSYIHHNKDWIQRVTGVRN

C3b deposition from 1% normal human serum on mannan (IC50) [1] [nM]	C3b deposition from 1% normal human serum on mannan (IC50) [2] [nM]	Substance
27		SGMI-1Fc, mature polypeptide fusion comprising SGMI-1, linker and human IgG1-Fc (Fc fusion)
	300	SGMI-2Fc, mature polypeptide fusion comprising SGMI-2, linker and human IgG1-Fc (Fc fusion)
